This note sets out measurements from publication PMC10397247.

One assay has as its target T1, 4H72-bA.
T1 chain: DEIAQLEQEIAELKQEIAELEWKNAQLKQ
Nature of the assay: two-hybrid library CCNG1.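 Further: natural log of median RNA to DNA barcode read ratio; higher means stronger binding.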

A further assay concerns the target T2, 4H4001-bA.
T2 chain: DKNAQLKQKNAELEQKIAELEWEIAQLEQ
Nature of the assay: two-hybrid library CCNG1.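 Further: natural log of median RNA to DNA barcode read ratio; higher means stronger binding.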

Another assay concerns the target T3, 4H717-bA.
T3 chain: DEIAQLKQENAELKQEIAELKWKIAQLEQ
Nature of the assay: two-hybrid library CCNG1.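 Further: natural log of median RNA to DNA barcode read ratio; higher means stronger binding.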

For another assay, the target named is T4, 4H754-bA.
T4 chain: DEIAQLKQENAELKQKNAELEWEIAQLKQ
Nature of the assay: two-hybrid library CCNG1.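 Further: natural log of median RNA to DNA barcode read ratio; higher means stronger binding.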

The target in another assay is T5, 4H908-bA.
T5 chain: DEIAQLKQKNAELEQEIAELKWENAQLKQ
Nature of the assay: two-hybrid library CCNG1. The following applies: mean of both orientations.

For another assay, the target named is T6, 4H3185-bA.
T6 chain: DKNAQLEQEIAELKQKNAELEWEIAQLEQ
Nature of the assay: two-hybrid library CCNG1.

The next assay concerns the target T7, 4H967-bA.
T7 chain: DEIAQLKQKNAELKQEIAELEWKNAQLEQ
Nature of the assay: two-hybrid library CCNG1.

The target of another assay is T8, 4H607-bA.
T8 chain: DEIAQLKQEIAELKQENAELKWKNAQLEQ
Nature of the assay: two-hybrid library CCNG1.

A further assay addresses T9, 4H883-bA.
T9 chain: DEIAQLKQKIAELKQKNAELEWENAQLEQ
Nature of the assay: two-hybrid library CCNG1.

The next assay concerns the target T10, 4H331-bA.
T10 chain: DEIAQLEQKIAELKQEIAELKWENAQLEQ
Nature of the assay: two-hybrid library CCNG1.

The next assay has as its target T11, 4H568-bA.
T11 chain: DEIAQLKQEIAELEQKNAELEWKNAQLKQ
Nature of the assay: two-hybrid library CCNG1.

A further assay addresses T12, 4H3112-bA.
T12 chain: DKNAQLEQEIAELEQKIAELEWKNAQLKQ
Nature of the assay: two-hybrid library CCNG1.

In the next assay the target is T13, 4H338-bA.
T13 chain: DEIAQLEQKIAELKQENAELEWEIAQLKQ
Nature of the assay: two-hybrid library CCNG1.

Another assay deals with T14, 4H3354-bA.
T14 chain: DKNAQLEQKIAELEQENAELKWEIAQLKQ
Nature of the assay: two-hybrid library CCNG1.

A further assay has as its target T15, 4H687-bA.
T15 chain: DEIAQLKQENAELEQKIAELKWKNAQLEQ
Nature of the assay: two-hybrid library CCNG1.

The target in the next assay is T16, 4H3855-bA.
T16 chain: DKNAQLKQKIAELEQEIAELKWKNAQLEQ
Nature of the assay: two-hybrid library CCNG1.

The next assay deals with T17, 4H953-bA.
T17 chain: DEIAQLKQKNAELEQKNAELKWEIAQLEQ
Nature of the assay: two-hybrid library CCNG1.

Another assay concerns the target T18, 4H2729-bA.
T18 chain: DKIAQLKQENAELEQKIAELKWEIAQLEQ
Nature of the assay: two-hybrid library CCNG1.

Another assay addresses T19, 4H918-bA.
T19 chain: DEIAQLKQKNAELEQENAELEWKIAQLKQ
Nature of the assay: two-hybrid library CCNG1.

The target of the next assay is T20, 4H797-bA.
T20 chain: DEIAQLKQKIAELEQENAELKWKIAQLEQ
Nature of the assay: two-hybrid library CCNG1.

The target of another assay is T21, 4H3782-bA.
T21 chain: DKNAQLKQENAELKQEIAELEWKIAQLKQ
Nature of the assay: two-hybrid library CCNG1.

Another assay concerns the target T22, 4H454-bA.
T22 chain: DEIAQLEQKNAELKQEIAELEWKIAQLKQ
Nature of the assay: two-hybrid library CCNG1.

Another assay has as its target T23, 4H3427-bA.
T23 chain: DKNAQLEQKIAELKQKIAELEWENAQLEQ
Nature of the assay: two-hybrid library CCNG1.

A further assay addresses T24, 4H369-AA.
T24 chain: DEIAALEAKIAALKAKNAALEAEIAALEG
Nature of the assay: two-hybrid library CCmax. Particulars: mean of both orientations.

In a further assay the target is T25, 4H2614-AA.
T25 chain: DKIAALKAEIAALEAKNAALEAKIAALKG
Nature of the assay: two-hybrid library CCmax. The following applies: mean of both orientations.

The target in the next assay is T26, 4H3625-AA.
T26 chain: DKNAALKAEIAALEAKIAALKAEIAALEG
Nature of the assay: two-hybrid library CCmax. Particulars: mean of both orientations.

A further assay addresses T27, 4H2536-AA.
T27 chain: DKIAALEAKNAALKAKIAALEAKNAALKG
Nature of the assay: two-hybrid library CCmax.

A further assay has as its target T28, 4H4033-AA.
T28 chain: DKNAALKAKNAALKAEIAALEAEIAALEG
Nature of the assay: two-hybrid library CCmax. Particulars: mean of both orientations.

The next assay addresses T29, 4H662-AA.
T29 chain: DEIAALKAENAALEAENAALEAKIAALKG
Nature of the assay: two-hybrid library CCmax. The following applies: mean of both orientations.

The target of a further assay is T30, 4H55-AA.
T30 chain: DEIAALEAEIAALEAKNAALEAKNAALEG
Nature of the assay: two-hybrid library CCmax.

In the next assay the target is T31, 4H2513-AA.
T31 chain: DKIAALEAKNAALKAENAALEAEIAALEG
Nature of the assay: two-hybrid library CCmax.

The target in another assay is T32, 4H3664-AA.
T32 chain: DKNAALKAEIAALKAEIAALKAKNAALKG
Nature of the assay: two-hybrid library CCmax. The following applies: mean of both orientations.

A further assay deals with T33, 4H2935-AA.
T33 chain: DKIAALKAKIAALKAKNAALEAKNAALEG
Nature of the assay: two-hybrid library CCmax. The following applies: mean of both orientations.

The target of a further assay is T34, 4H2608-AA.
T34 chain: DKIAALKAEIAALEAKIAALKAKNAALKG
Nature of the assay: two-hybrid library CCmax. Particulars: mean of both orientations.

In a further assay the target is T35, 4H327-AA.
T35 chain: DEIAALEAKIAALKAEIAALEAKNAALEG
Nature of the assay: two-hybrid library CCmax. Particulars: mean of both orientations.

For another assay, the target named is T36, 4H481-AA.
T36 chain: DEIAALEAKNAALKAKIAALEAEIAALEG
Nature of the assay: two-hybrid library CCmax. The following applies: mean of both orientations.

The target of another assay is T37, 4H3605-AA.
T37 chain: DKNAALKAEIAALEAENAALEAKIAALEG
Nature of the assay: two-hybrid library CCmax. The following applies: mean of both orientations.

The next assay has as its target T38, 4H2726-AA.
T38 chain: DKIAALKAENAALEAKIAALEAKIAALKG
Nature of the assay: two-hybrid library CCmax. The following applies: mean of both orientations.

In the next assay the target is T39, 4H3922-AA.
T39 chain: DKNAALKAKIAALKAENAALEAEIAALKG
Nature of the assay: two-hybrid library CCmax. Particulars: mean of both orientations.

Regarding DKIAQLKQENAELEQKIAELKWEIAQLEQ [4H2729-bA], the interaction score with 4H72-bA is -0.336; with 4H4001-bA it was -0.575; with 4H717-bA, -1.35; with 4H754-bA, -0.709; with 4H908-bA, -0.401; with 4H3185-bA it was -0.331. In addition, the interaction score in the assay with 4H967-bA is 0.0132; with 4H607-bA it was -1.29; with 4H883-bA, -1.72; with 4H331-bA, -1.18; with 4H568-bA, -1.78; in the assay with 4H3112-bA it was -0.141. Further, the interaction score was -0.713 with 4H338-bA; -0.919 in the assay with 4H3354-bA; -1.51 with 4H687-bA; -0.46 with 4H3855-bA; -1.01 in the assay with 4H953-bA; -0.254 with 4H2729-bA. The interaction score in the assay with 4H918-bA is 1.73; with 4H797-bA, -1.21; with 4H3782-bA it was 0.712; in the assay with 4H454-bA it was 1.84; with 4H3427-bA it was -0.88.

With DKIAALEAKNAALKAENAALEAEIAALEG [4H2513-AA], the interaction score is -1.79 with 4H369-AA; 0.461 with 4H2614-AA; -2 with 4H3625-AA; -0.747 with 4H2536-AA; -1.46 with 4H4033-AA; 1.22 in the assay with 4H662-AA. The interaction score in the assay with 4H55-AA was -1.88; in the assay with 4H2513-AA, -1.49; in the assay with 4H3664-AA it was -1.85; with 4H2935-AA, -2.01; in the assay with 4H2608-AA, -1.07; with 4H327-AA, -1.74. The interaction score was -1.36 with 4H481-AA, -1.25 in the assay with 4H3605-AA, 0.913 with 4H2726-AA and -1.74 in the assay with 4H3922-AA.
